From article doi:10.1101/208041
Numbering of substitutions follows the chain as printed.

T1: dMpAgo (catalytically inactive MpAgo) (Marinitoga piezophila, UniProt H2J4R4 1-639, D446A)
T1 sequence: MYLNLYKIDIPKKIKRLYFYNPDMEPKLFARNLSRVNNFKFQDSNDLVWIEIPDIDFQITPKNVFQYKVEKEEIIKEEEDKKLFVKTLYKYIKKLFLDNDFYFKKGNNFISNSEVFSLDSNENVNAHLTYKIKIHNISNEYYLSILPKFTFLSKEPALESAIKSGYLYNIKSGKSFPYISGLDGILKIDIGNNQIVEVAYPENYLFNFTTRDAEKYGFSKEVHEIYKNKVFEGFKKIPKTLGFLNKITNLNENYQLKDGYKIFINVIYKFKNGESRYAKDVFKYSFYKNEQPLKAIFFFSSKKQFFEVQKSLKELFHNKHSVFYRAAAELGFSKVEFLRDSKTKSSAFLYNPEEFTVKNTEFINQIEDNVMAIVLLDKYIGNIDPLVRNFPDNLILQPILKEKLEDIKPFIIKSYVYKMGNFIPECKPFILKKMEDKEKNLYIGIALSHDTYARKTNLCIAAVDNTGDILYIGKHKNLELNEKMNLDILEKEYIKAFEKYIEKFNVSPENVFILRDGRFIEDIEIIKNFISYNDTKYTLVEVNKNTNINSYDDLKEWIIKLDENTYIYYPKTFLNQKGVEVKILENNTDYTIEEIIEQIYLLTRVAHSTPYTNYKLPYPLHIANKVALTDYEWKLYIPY

T2: MpAgo WT (Marinitoga piezophila, UniProt H2J4R4 1-639)
T2 sequence: T1 sequence with A446D

T3: dMpAgo (catalytically inactive MpAgo) D446A (Marinitoga piezophila) (UniProt H2J4R4)
T3 sequence: T1 sequence

B1: BrdU guide / 18-nt target (mixed)
RNA 1: UAUACAACCUACUACCUCAUU
RNA 2: GGACUAUGUAGAUCUAUAAUUAGAGGUAGUAGGUUGUAUCUCAGGAGGUC
modifications: BrdU at guide 1
B2: BrdU guide / 15-nt target (mixed)
RNA 1: UAUACAACCUACUACCUCAUU
RNA 2: B1 RNA 2 with G23C, A24U, G25C
modifications: BrdU at guide 1
B3: A7 guide / mm3 (mixed)
RNA 1: UAGCGGAUGCCAUAUCCAACU
RNA 2: GGCAGCAUUCAACCAUAUGGCAUCCGAAUACAGCCAAG
modifications: BrdU at guide 1
B4: A7 guide / G target (mm7) (mixed)
RNA 1: UAGCGGAUGCCAUAUCCAACU
RNA 2: B3 RNA 2 with U23G, A27C
modifications: BrdU at guide 1
B5: A7 guide / mm9 (mixed)
RNA 1: UAGCGGAUGCCAUAUCCAACU
RNA 2: B3 RNA 2 with C21A, A27C
modifications: BrdU at guide 1
B6: rA guide / ON target (mixed)
RNA 1: AAUACAACCUACUACCUCAUU
RNA 2: GGACUAUGAUCUAGAUAUUAAUGAGGUAGUAGGUUGUAUCUCAGGAGGUC
B7: dU guide / ON target (mixed)
RNA 1: UAUACAACCUACUACCUCAUU
RNA 2: B6 RNA 2
modifications: dU at guide 1
B8: rU guide / ON target (mixed)
RNA 1: UAUACAACCUACUACCUCAUU
RNA 2: B6 RNA 2
B9: rC guide / ON target (mixed)
RNA 1: CAUACAACCUACUACCUCAUU
RNA 2: B6 RNA 2
B10: rA guide / OFF target (mixed)
RNA 1: AAUACAACCUACUACCUCAUU
RNA 2: GUUAUGUGUGUGAUUAUAUUUGUUCCAGUUCCUGUGUAAUAGACAUGGAA
B11: rU guide / OFF target (mixed)
RNA 1: UAUACAACCUACUACCUCAUU
RNA 2: B10 RNA 2
B12: rC guide / OFF target (mixed)
RNA 1: CAUACAACCUACUACCUCAUU
RNA 2: B10 RNA 2
B13: dU guide / OFF target (mixed)
RNA 1: UAUACAACCUACUACCUCAUU
RNA 2: B10 RNA 2
modifications: dU at guide 1
B14: A6 guide / mm7 (mixed)
RNA 1: UGCGGAUGCCAUAUGCAACUU
RNA 2: B3 RNA 2 with A22C, A27C
modifications: BrdU at guide 1
B15: A6 guide / mm2 (mixed)
RNA 1: UGCGGAUGCCAUAUGCAACUU
RNA 2: B3 RNA 2
modifications: BrdU at guide 1
B16: A6 guide / mm12 (mixed)
RNA 1: UGCGGAUGCCAUAUGCAACUU
RNA 2: B3 RNA 2 with A17C, A27C
modifications: BrdU at guide 1
B17: A6 guide / mm4 (mixed)
RNA 1: UGCGGAUGCCAUAUGCAACUU
RNA 2: B3 RNA 2 with C25A, A27C
modifications: BrdU at guide 1
B18: A6 guide / mm3 (mixed)
RNA 1: UGCGGAUGCCAUAUGCAACUU
RNA 2: B3 RNA 2 with G26U, A27C
modifications: BrdU at guide 1
B19: A6 guide / mm8 (mixed)
RNA 1: UGCGGAUGCCAUAUGCAACUU
RNA 2: B3 RNA 2 with C21A, A27C
modifications: BrdU at guide 1
B20: A6 guide / mm11 (mixed)
RNA 1: UGCGGAUGCCAUAUGCAACUU
RNA 2: B3 RNA 2 with U18G, A27C
modifications: BrdU at guide 1
B21: A6 guide / mm5 (mixed)
RNA 1: UGCGGAUGCCAUAUGCAACUU
RNA 2: B3 RNA 2 with C24A, A27C
modifications: BrdU at guide 1
B22: A6 guide / mm10 (mixed)
RNA 1: UGCGGAUGCCAUAUGCAACUU
RNA 2: B3 RNA 2 with G19U, A27C
modifications: BrdU at guide 1
B23: gRNA 5'-rA (ssRNA)
RNA: AAUACAACCUACUACCUCAUU
modifications: 5'-OH
B24: gRNA 5'-rU (ssRNA)
RNA: UAUACAACCUACUACCUCAUU
modifications: 5'-OH
B25: gRNA 5'-rC (ssRNA)
RNA: CAUACAACCUACUACCUCAUU
modifications: 5'-OH
B26: C7 guide / G target (mixed)
RNA 1: UAGCGGCUGCCAUAUCCAACU
RNA 2: B3 RNA 2 with U23G, A27C
modifications: BrdU at guide 1
B27: U7 guide / A target (mixed)
RNA 1: UAGCGGUUGCCAUAUCCAACU
RNA 2: B3 RNA 2 with U23A, A27C
modifications: BrdU at guide 1
B28: U6 guide / A target (mixed)
RNA 1: UGCGGUUGCCAUAUGCAACUU
RNA 2: B3 RNA 2 with U23A, A27C
modifications: BrdU at guide 1
B29: A7 guide / U target (mixed)
RNA 1: UAGCGGAUGCCAUAUCCAACU
RNA 2: B3 RNA 2 with A27C
modifications: BrdU at guide 1
B30: G7 guide / C target (mixed)
RNA 1: UAGCGGGUGCCAUAUCCAACU
RNA 2: B3 RNA 2 with U23C, A27C
modifications: BrdU at guide 1

Target: T1, dMpAgo (catalytically inactive MpAgo)
Assay: filter binding
Conditions: not given

| Molecule | Kd |
| --- | --- |
| B1 | 0.107 ± 0.006 nM |
| B2 | 0.083 ± 0.008 nM |

Target: T1, dMpAgo (catalytically inactive MpAgo)
Assay: filter binding
Conditions: not given
Remark: another data set of the same source

| Molecule | binding signal |
| --- | --- |
| B3 | 32 fold Kd vs complementary |
| B4 | 301 fold Kd vs complementary |
| B5 | 327 fold Kd vs complementary |

Target: T1, dMpAgo (catalytically inactive MpAgo)
Assay: filter binding
Conditions: not given
Remark: another data set of the same source

| Molecule | Kd | binding result |
| --- | --- | --- |
| B6 | 12 ± 2 nM | – |
| B7 | 0.5 ± 0.067 nM | – |
| B8 | 5 ± 0.8 nM | – |
| B9 | 4.6 ± 0.5 nM | – |
| B10 | 112 ± 19 nM | – |
| B11 | 359 ± 37 nM | – |
| B12 | 112 ± 18 nM | – |
| B13 | – | no binding |

Target: T1, dMpAgo (catalytically inactive MpAgo)
Assay: filter binding
Conditions: not given
Remark: another data set of the same source

| Molecule | binding signal |
| --- | --- |
| B14 | > 5 fold Kd vs complementary |
| B15 | > 5 fold Kd vs complementary |
| B16 | > 5 fold Kd vs complementary |
| B17 | > 5 fold Kd vs complementary |
| B18 | > 5 fold Kd vs complementary |
| B19 | > 5 fold Kd vs complementary |
| B20 | > 5 fold Kd vs complementary |
| B21 | > 5 fold Kd vs complementary |
| B22 | > 5 fold Kd vs complementary |

Target: T2, MpAgo WT
Assay: filter binding
Conditions: not given

| Molecule | Kd |
| --- | --- |
| B23 | 73 ± 10 nM |
| B24 | 81 ± 9 nM |
| B25 | 104 ± 9 nM |

Target: T3, dMpAgo (catalytically inactive MpAgo) D446A (Marinitoga piezophila)
Assay: filter binding
Conditions: BrdU at guide 1; N = inosine at target 23

| Molecule | binding signal |
| --- | --- |
| UGCGGAUGCCAUAUGCAACUU / GGCAGCAUUCAACCAUAUGGCANCCGCAUACAGCCAAG [A6 guide / I target] | 19 % bound |

Same assay, conditions: BrdU at guide 1; internal desthiobiotin-TEG before last AA

| Molecule | binding signal (fold Kd vs complementary) |
| --- | --- |
| UAUUGUGACAAGAAUGCUGUUAAAAAAAAAAA / GGCAGCAUUCAACAUUGUUGUCACAAUAUACAGCCAAG [32-nt guide / mm12] | > 5 |
| UAUUGUGACAAGAAUGCUGUUAAAAAAAAAAA / GGCAGCAUUCAACAUUCUAGUCACAAUAUACAGCCAAG [32-nt guide / mm10] | > 5 |

Target: T1, dMpAgo (catalytically inactive MpAgo)
Assay: filter binding
Conditions: not given
Remark: another data set of the same source

| Molecule | binding result |
| --- | --- |
| B26 | binds |
| B27 | binds |
| B28 | binds |
| B29 | binds |
| B30 | binds |
